According to article PMC7191749, “Low phosphatase activity of LiaS and strong LiaR-DNA affinity explain the unusual LiaS to LiaR in vivo stoichiometry” (BMC Microbiology, 2020):
Values belong to the molecule of their own block, whether it stands above or below them.

Assays:
[1] = target: T1, LiaS (GST-LiaS, liaS^126) (Bacillus subtilis, UniProt O32198); assay: autophosphorylation, […] incorporation by SDS-PAGE phosphorimaging, kobs against ATP; assay type: biochemical; conditions: labelled compound; pH 7.4, 50 mM KCl, 5 mM MgCl2, 10 mM CaCl2, 25 °C; 5 μM LiaS; 10-250 μM ATP; apparent dissociation constant from kinetics; read-out: KS
T1 construct: cytoplasmic domain, residues 126-360 (TM and HAMP removed), fused to C-terminus of GST; pGEX-4T-1, E. coli BL21(DE3); calculated mass 52,431 (printed as kD)

LiaR^N (RD of LiaR) = target: T2, LiaR^N (RD of LiaR) (Bacillus subtilis, UniProt O32197); assay: phosphorylation by acetyl phosphate; assay type: biochemical; conditions: covalent phosphorylation of the stand-alone receiver domain
T2 construct: receiver domain, tagless, Gly-131 codon changed to stop (residues 1-130); pET26b, E. coli BL21(DE3); calculated mass 14,029 (printed as kD)

[2] = target: T3, LiaR (Bacillus subtilis 168) (UniProt O32197); assay: EMSA; conditions: EMSA: 10 mM Tris pH 7.5, 50 mM KCl, 1 mM DTT, 5 mM MgCl2, 10 ng herring sperm DNA, 2.5% glycerol, 25 C, 30 min, 9% native PAGE; footprinting as in ref 35
T3 sequence: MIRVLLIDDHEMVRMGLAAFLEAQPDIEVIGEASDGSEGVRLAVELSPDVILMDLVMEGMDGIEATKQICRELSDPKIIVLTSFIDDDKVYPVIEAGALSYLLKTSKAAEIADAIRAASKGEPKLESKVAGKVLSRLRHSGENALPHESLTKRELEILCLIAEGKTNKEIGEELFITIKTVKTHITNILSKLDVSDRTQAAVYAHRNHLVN

[3] = target: T4, LiaRC (effector domain) (Bacillus subtilis 168) (UniProt O32197); assay: EMSA; conditions: EMSA: 10 mM Tris pH 7.5, 50 mM KCl, 1 mM DTT, 5 mM MgCl2, 10 ng herring sperm DNA, 2.5% glycerol, 25 C, 30 min, 9% native PAGE; footprinting as in ref 35
T4 sequence: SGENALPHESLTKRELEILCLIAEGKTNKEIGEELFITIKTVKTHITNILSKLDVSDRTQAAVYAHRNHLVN

[4] = target: T3, LiaR (Bacillus subtilis 168); assay: DNase I footprinting; conditions: EMSA: 10 mM Tris pH 7.5, 50 mM KCl, 1 mM DTT, 5 mM MgCl2, 10 ng herring sperm DNA, 2.5% glycerol, 25 C, 30 min, 9% native PAGE; footprinting as in ref 35
[5] = target: T5, VraR (Staphylococcus aureus) (UniProt Q7A2Q1); assay: DNase I footprinting; conditions: EMSA: 10 mM Tris pH 7.5, 50 mM KCl, 1 mM DTT, 5 mM MgCl2, 10 ng herring sperm DNA, 2.5% glycerol, 25 C, 30 min, 9% native PAGE; footprinting as in ref 35
T5 sequence: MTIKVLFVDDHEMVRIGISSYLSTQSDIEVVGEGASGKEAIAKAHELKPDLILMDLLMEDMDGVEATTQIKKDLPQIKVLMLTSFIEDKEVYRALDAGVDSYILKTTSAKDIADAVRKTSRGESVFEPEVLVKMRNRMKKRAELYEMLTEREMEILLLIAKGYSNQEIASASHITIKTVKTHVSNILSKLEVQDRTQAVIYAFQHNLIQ

[6] = test system: LiaR (Bacillus subtilis 168); assay: EMSA; conditions: 5 mM Mg2+; unphosphorylated; EMSA: 10 mM Tris pH 7.5, 50 mM KCl, 1 mM DTT, 5 mM MgCl2, 10 ng herring sperm DNA, 2.5% glycerol, 25 C, 30 min, 9% native PAGE; footprinting as in ref 35
[7] = test system: LiaRC (effector domain) (Bacillus subtilis 168); assay: EMSA; conditions: 5 mM Mg2+; EMSA: 10 mM Tris pH 7.5, 50 mM KCl, 1 mM DTT, 5 mM MgCl2, 10 ng herring sperm DNA, 2.5% glycerol, 25 C, 30 min, 9% native PAGE; footprinting as in ref 35
native-PAGE = target: the molecule itself; assay: native-PAGE

T1 sequence (O32198 126-360): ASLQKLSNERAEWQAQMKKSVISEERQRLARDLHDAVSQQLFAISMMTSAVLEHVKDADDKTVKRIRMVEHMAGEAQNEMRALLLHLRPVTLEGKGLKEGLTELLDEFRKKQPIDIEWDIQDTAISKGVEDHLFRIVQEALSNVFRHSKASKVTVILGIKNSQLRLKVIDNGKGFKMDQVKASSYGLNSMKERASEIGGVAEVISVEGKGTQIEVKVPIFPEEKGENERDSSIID

Kd [1]: 7 ± 1 µM
Molecule: Nc1ncnc2c1ncn2[C@@H]1O[C@H](COP(=O)(O)OP(=O)(O)OP(=O)(O)O)[C@@H](O)[C@H]1O [ATP]

Molecule: CC(=O)OP(=O)(O)O [acetyl phosphate]
phosphorylation by acetyl phosphate (LiaR^N (RD of LiaR)): RD of LiaR also underwent phosphorylation by acetyl phosphate

Molecule: TTCATGCAGATCCTCCTTTCGTTTTCCTTGTCTTCATCTTATACAAGTTGGAAGATATGCAAAACGAATCAGAGATTGATTTTTATATAAGACCGGAGTCGTATCTCGCACCGGACCCATTGGCACAAAAAAACGCCATGCACGAGGCATGGCGTTTTAAAACCCTTTACAGATGAACACTTGCTTCCCTTTC (double strand) [PliaI (-162 to +31)]
Kd [2]: 0.2 µM | Kd [3]: 20 µM | binding [4]: binds | binding [5]: binds

Molecule: PliaI (-162 to +31)
Kd [6]: 0.2 µM | Kd [7]: 20 µM

B1: LiaR 1-211 (protein)
chain: T3 sequence
Kd (native-PAGE): > 20 µM
